Assay results reported in patent US20240018188A1.
[ ]: non-standard residue; d: D form. The star is where a group is joined. Dansyl = CN(C)c1cccc2c(S(=O)(=O)*)cccc12; 2Nal = N[C@@H](Cc1ccc2ccccc2c1)C(=O)O; dNle = CCCC[C@@H](N)C(=O)O; Ahx = NCCCCCC(=O)O; βAla = NCCC(=O)O; Sar = CNCC(=O)O

B1: Compound 14 (peptide)
peptide: Ac-[dL][dNle][dR][dS][dR][dR][dL][dR][dV]G[dL][dR][dK][dR][dR][dR][dR][dR]G[2Nal]-NH2
SMILES: CCCC[C@@H](NC(=O)[C@@H](CC(C)C)NC(C)=O)C(=O)N[C@H](CCCNC(=N)N)C(=O)N[C@H](CO)C(=O)N[C@H](CCCNC(=N)N)C(=O)N[C@H](CCCNC(=N)N)C(=O)N[C@H](CC(C)C)C(=O)N[C@H](CCCNC(=N)N)C(=O)N[C@@H](C(=O)NCC(=O)N[C@H](CC(C)C)C(=O)N[C@H](CCCNC(=N)N)C(=O)N[C@H](CCCCN)C(=O)N[C@H](CCCNC(=N)N)C(=O)N[C@H](CCCNC(=N)N)C(=O)N[C@H](CCCNC(=N)N)C(=O)N[C@H](CCCNC(=N)N)C(=O)N[C@H](CCCNC(=N)N)C(=O)NCC(=O)N[C@@H](Cc1ccc2ccccc2c1)C(N)=O)C(C)C
B2: Compound 20 (peptide)
peptide: Dansyl-[Sar][dL][dNle][dR][dS][dV][dR][dL][dR][dV]G[dL][dR][dR][dR][dR][dR][dR][Sar][Sar]-OMe
SMILES: CCCC[C@@H](NC(=O)[C@@H](CC(C)C)NC(=O)CN(C)S(=O)(=O)c1cccc2c(N(C)C)cccc12)C(=O)N[C@H](CCCNC(=N)N)C(=O)N[C@H](CO)C(=O)N[C@@H](C(=O)N[C@H](CCCNC(=N)N)C(=O)N[C@H](CC(C)C)C(=O)N[C@H](CCCNC(=N)N)C(=O)N[C@@H](C(=O)NCC(=O)N[C@H](CC(C)C)C(=O)N[C@H](CCCNC(=N)N)C(=O)N[C@H](CCCNC(=N)N)C(=O)N[C@H](CCCNC(=N)N)C(=O)N[C@H](CCCNC(=N)N)C(=O)N[C@H](CCCNC(=N)N)C(=O)N[C@H](CCCNC(=N)N)C(=O)N(C)CC(=O)N(C)CC(=O)OC)C(C)C)C(C)C
B3: Compound 16 (peptide)
peptide: Ac-[dL][dNle][dR][dS][dV][dR][dL][dR][dNle]G[dL][dR][dK][dR][dR][dR][dR][dR]G[2Nal]-NH2
SMILES: CCCC[C@@H](NC(=O)[C@@H](CCCNC(=N)N)NC(=O)[C@@H](CC(C)C)NC(=O)[C@@H](CCCNC(=N)N)NC(=O)[C@H](NC(=O)[C@@H](CO)NC(=O)[C@@H](CCCNC(=N)N)NC(=O)[C@@H](CCCC)NC(=O)[C@@H](CC(C)C)NC(C)=O)C(C)C)C(=O)NCC(=O)N[C@H](CC(C)C)C(=O)N[C@H](CCCNC(=N)N)C(=O)N[C@H](CCCCN)C(=O)N[C@H](CCCNC(=N)N)C(=O)N[C@H](CCCNC(=N)N)C(=O)N[C@H](CCCNC(=N)N)C(=O)N[C@H](CCCNC(=N)N)C(=O)N[C@H](CCCNC(=N)N)C(=O)NCC(=O)N[C@@H](Cc1ccc2ccccc2c1)C(N)=O
B4: Compound 23 (peptide)
peptide: Ac-[dL][dNle][dR][dA][dV][dR][dL][dR][dV][βAla][dL][dR][Ahx][dR][Ahx][dR][Ahx][dR][Ahx][dR][Ahx][dR]-NH2
SMILES: CCCC[C@@H](NC(=O)[C@@H](CC(C)C)NC(C)=O)C(=O)N[C@H](CCCNC(=N)N)C(=O)N[C@H](C)C(=O)N[C@@H](C(=O)N[C@H](CCCNC(=N)N)C(=O)N[C@H](CC(C)C)C(=O)N[C@H](CCCNC(=N)N)C(=O)N[C@@H](C(=O)NCCC(=O)N[C@H](CC(C)C)C(=O)N[C@H](CCCNC(=N)N)C(=O)NCCCCCC(=O)N[C@H](CCCNC(=N)N)C(=O)NCCCCCC(=O)N[C@H](CCCNC(=N)N)C(=O)NCCCCCC(=O)N[C@H](CCCNC(=N)N)C(=O)NCCCCCC(=O)N[C@H](CCCNC(=N)N)C(=O)NCCCCCC(=O)N[C@H](CCCNC(=N)N)C(N)=O)C(C)C)C(C)C
B5: Compound 17 (peptide)
peptide: Ac-[dL][dNle][dR][dS][dV][dR][dL][dR][dV][βAla][dL][dR][dK][dR][dR][dR][dR][dR]G[2Nal]-NH2
SMILES: CCCC[C@@H](NC(=O)[C@@H](CC(C)C)NC(C)=O)C(=O)N[C@H](CCCNC(=N)N)C(=O)N[C@H](CO)C(=O)N[C@@H](C(=O)N[C@H](CCCNC(=N)N)C(=O)N[C@H](CC(C)C)C(=O)N[C@H](CCCNC(=N)N)C(=O)N[C@@H](C(=O)NCCC(=O)N[C@H](CC(C)C)C(=O)N[C@H](CCCNC(=N)N)C(=O)N[C@H](CCCCN)C(=O)N[C@H](CCCNC(=N)N)C(=O)N[C@H](CCCNC(=N)N)C(=O)N[C@H](CCCNC(=N)N)C(=O)N[C@H](CCCNC(=N)N)C(=O)N[C@H](CCCNC(=N)N)C(=O)NCC(=O)N[C@@H](Cc1ccc2ccccc2c1)C(N)=O)C(C)C)C(C)C
B6: Compound 19 (peptide)
peptide: Dansyl-[Sar][dL][dNle][dR][dS][dV][dR][dL][dR][dV]G[dL][dR][dK][dR][dR][dR][dR][dR]-NH2
SMILES: CCCC[C@@H](NC(=O)[C@@H](CC(C)C)NC(=O)CN(C)S(=O)(=O)c1cccc2c(N(C)C)cccc12)C(=O)N[C@H](CCCNC(=N)N)C(=O)N[C@H](CO)C(=O)N[C@@H](C(=O)N[C@H](CCCNC(=N)N)C(=O)N[C@H](CC(C)C)C(=O)N[C@H](CCCNC(=N)N)C(=O)N[C@@H](C(=O)NCC(=O)N[C@H](CC(C)C)C(=O)N[C@H](CCCNC(=N)N)C(=O)N[C@H](CCCCN)C(=O)N[C@H](CCCNC(=N)N)C(=O)N[C@H](CCCNC(=N)N)C(=O)N[C@H](CCCNC(=N)N)C(=O)N[C@H](CCCNC(=N)N)C(=O)N[C@H](CCCNC(=N)N)C(N)=O)C(C)C)C(C)C
B7: Compound 12 (peptide)
peptide: Ac-[dL][dNle][dR]G[dV][dR][dL][dR][dV]G[dL][dR][dK][dR][dR][dR][dR][dR]G[2Nal]-NH2
SMILES: CCCC[C@@H](NC(=O)[C@@H](CC(C)C)NC(C)=O)C(=O)N[C@H](CCCNC(=N)N)C(=O)NCC(=O)N[C@@H](C(=O)N[C@H](CCCNC(=N)N)C(=O)N[C@H](CC(C)C)C(=O)N[C@H](CCCNC(=N)N)C(=O)N[C@@H](C(=O)NCC(=O)N[C@H](CC(C)C)C(=O)N[C@H](CCCNC(=N)N)C(=O)N[C@H](CCCCN)C(=O)N[C@H](CCCNC(=N)N)C(=O)N[C@H](CCCNC(=N)N)C(=O)N[C@H](CCCNC(=N)N)C(=O)N[C@H](CCCNC(=N)N)C(=O)N[C@H](CCCNC(=N)N)C(=O)NCC(=O)N[C@@H](Cc1ccc2ccccc2c1)C(N)=O)C(C)C)C(C)C
B8: Compound 24 (peptide)
peptide: Ac-[dL][dNle][dR][dA][dV][dR][dL][dR][dV][βAla][dL][dR][Ahx][dR][Ahx][dR][Ahx][dR][Ahx][dR][Ahx][dR][Ahx][dY]-NH2
SMILES: CCCC[C@@H](NC(=O)[C@@H](CC(C)C)NC(C)=O)C(=O)N[C@H](CCCNC(=N)N)C(=O)N[C@H](C)C(=O)N[C@@H](C(=O)N[C@H](CCCNC(=N)N)C(=O)N[C@H](CC(C)C)C(=O)N[C@H](CCCNC(=N)N)C(=O)N[C@@H](C(=O)NCCC(=O)N[C@H](CC(C)C)C(=O)N[C@H](CCCNC(=N)N)C(=O)NCCCCCC(=O)N[C@H](CCCNC(=N)N)C(=O)NCCCCCC(=O)N[C@H](CCCNC(=N)N)C(=O)NCCCCCC(=O)N[C@H](CCCNC(=N)N)C(=O)NCCCCCC(=O)N[C@H](CCCNC(=N)N)C(=O)NCCCCCC(=O)N[C@H](CCCNC(=N)N)C(=O)NCCCCCC(=O)N[C@H](Cc1ccc(O)cc1)C(N)=O)C(C)C)C(C)C
B9: Compound 21 (peptide)
peptide: Ac-[dL][dNle][dR][dS][dV][dR][dL][dR][dV]G[dL][dR][dR][dR][dR][dR][dR][Sar][Sar]-OMe
SMILES: CCCC[C@@H](NC(=O)[C@@H](CC(C)C)NC(C)=O)C(=O)N[C@H](CCCNC(=N)N)C(=O)N[C@H](CO)C(=O)N[C@@H](C(=O)N[C@H](CCCNC(=N)N)C(=O)N[C@H](CC(C)C)C(=O)N[C@H](CCCNC(=N)N)C(=O)N[C@@H](C(=O)NCC(=O)N[C@H](CC(C)C)C(=O)N[C@H](CCCNC(=N)N)C(=O)N[C@H](CCCNC(=N)N)C(=O)N[C@H](CCCNC(=N)N)C(=O)N[C@H](CCCNC(=N)N)C(=O)N[C@H](CCCNC(=N)N)C(=O)N[C@H](CCCNC(=N)N)C(=O)N(C)CC(=O)N(C)CC(=O)OC)C(C)C)C(C)C
B10: Compound 25 (peptide)
peptide: Ac-[dL][dNle][dR][dS][dV][dR][dL][dR][dV]G[dL][dR][Ahx][dR][Ahx][dR][Ahx][dR][Ahx][dR][Ahx][dR]-NH2
SMILES: CCCC[C@@H](NC(=O)[C@@H](CC(C)C)NC(C)=O)C(=O)N[C@H](CCCNC(=N)N)C(=O)N[C@H](CO)C(=O)N[C@@H](C(=O)N[C@H](CCCNC(=N)N)C(=O)N[C@H](CC(C)C)C(=O)N[C@H](CCCNC(=N)N)C(=O)N[C@@H](C(=O)NCC(=O)N[C@H](CC(C)C)C(=O)N[C@H](CCCNC(=N)N)C(=O)NCCCCCC(=O)N[C@H](CCCNC(=N)N)C(=O)NCCCCCC(=O)N[C@H](CCCNC(=N)N)C(=O)NCCCCCC(=O)N[C@H](CCCNC(=N)N)C(=O)NCCCCCC(=O)N[C@H](CCCNC(=N)N)C(=O)NCCCCCC(=O)N[C@H](CCCNC(=N)N)C(N)=O)C(C)C)C(C)C
B11: Compound 22 (peptide)
peptide: Ac-[dL][dNle][dR][βAla][dV][dR][dL][dR][dV][βAla][dL][dR][dK][dR][dR][dR][dR][dR]G[2Nal]-NH2
SMILES: CCCC[C@@H](NC(=O)[C@@H](CC(C)C)NC(C)=O)C(=O)N[C@H](CCCNC(=N)N)C(=O)NCCC(=O)N[C@@H](C(=O)N[C@H](CCCNC(=N)N)C(=O)N[C@H](CC(C)C)C(=O)N[C@H](CCCNC(=N)N)C(=O)N[C@@H](C(=O)NCCC(=O)N[C@H](CC(C)C)C(=O)N[C@H](CCCNC(=N)N)C(=O)N[C@H](CCCCN)C(=O)N[C@H](CCCNC(=N)N)C(=O)N[C@H](CCCNC(=N)N)C(=O)N[C@H](CCCNC(=N)N)C(=O)N[C@H](CCCNC(=N)N)C(=O)N[C@H](CCCNC(=N)N)C(=O)NCC(=O)N[C@@H](Cc1ccc2ccccc2c1)C(N)=O)C(C)C)C(C)C

Each binder was assayed against human RAD51 (human) (UniProt Q06609) (assay: cell-based or functional assay).
Sequence of human RAD51 (human) (Q06609 2-339 limits assumed): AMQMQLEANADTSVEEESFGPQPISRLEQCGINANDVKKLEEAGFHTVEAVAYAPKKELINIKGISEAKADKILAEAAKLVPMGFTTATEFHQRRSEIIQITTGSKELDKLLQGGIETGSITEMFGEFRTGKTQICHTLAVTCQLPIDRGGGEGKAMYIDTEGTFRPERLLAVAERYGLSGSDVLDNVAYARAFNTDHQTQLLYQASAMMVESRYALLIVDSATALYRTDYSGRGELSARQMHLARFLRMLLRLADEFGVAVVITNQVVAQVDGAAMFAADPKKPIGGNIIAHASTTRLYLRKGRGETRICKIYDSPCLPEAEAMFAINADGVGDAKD

Going from B1 to B2, the IC50 falls from 3500 µM to 8.6 µM (410-fold).

Going from B3 to B4, the IC50 falls from 43 µM to 20.6 µM (2.1-fold).

Going from B5 to B6, the IC50 falls from 20 µM to 6.2 µM (3.2-fold).

Going from B7 to B8, the IC50 falls from 17 µM to 6.2 µM (2.7-fold).

Compared with B9, B10 is 1.8-fold lower in IC50: 25 µM for the first, 14 µM for the second.

Binder B11 has an IC50 of 18 µM.
